Here are results for four molecules from patent US20030028002A1, “Cyclin D binding factor, and uses thereof” (published 2003).

One series addresses T1, cyclin D2-DMP1 complex (mouse, UniProt P30280 1-289).
T1 construct: Complex formed in coinfected Sf9 cells
The series is described as follows: coinfected Sf9 cells, immunoprecipitation with antiserum to DMP1.

Series [1] has as its target T2, cyclin D1 (mouse, UniProt P25322 1-295).
T2 construct: 35S-labelled in vitro translation product in the pull-down; baculovirus product in Sf9 cells
The series is described as follows: GST pull-down of 35S-labelled in vitro translated cyclin. On the procedure: (§1) Because DMP1 interacted with cyclin D2 in yeast, the ability of a glutathione S-transferase (GST)-DMP1 fusion protein to bind D-type cyclins in vitro is examined. GST is fused to residues 176-761 of DMP1 (in lieu of GAL4 in the original cDNA clone), and the bacterially synthesized recombinant protein is incubated with [³⁵S]methionine-labeled D-type cyclins prepared by transcription and translation in vitro. As a positive control, GST-RB which can specifically bind D-type cyclins in this assay is used (15). Bound cyclins recovered on washed glutathione-Sepharose beads are analyzed by electrophoresis on denaturing gels. […] GST-DMP1 is less efficient than GST-RB in binding cyclins D2 and D3 (˜4-fold less binding), and under these conditions, an interaction with D1 is not detected (lanes 3, 7, 11). No labeled proteins bind to GST alone (lanes 4, 8, 12), and neither cyclin A nor cyclin E bind to GST-RB or to GST-DMP1. A cyclin D2 mutant disrupted in an amino-terminal Leu-X-Cys-X-Glu pentapeptide that is required for high efficiency GST-RB binding is not detectably compromised in its interaction with GST-DMP1 (negative data not shown); in agreement, DMP1 bears no homology to RB or to RB-related family members (p107 and p130).

For another series, the target named is T3, cyclin D2 (mouse, UniProt P30280 1-289).
T3 construct: 35S-labelled in vitro translation product in the pull-down; baculovirus product in Sf9 cells
In words: GST pull-down of 35S-labelled in vitro translated cyclin on glutathione-Sepharose, gel autoradiography. As for the experimental part: as §1

The next series addresses T4, cyclin D3 (mouse, UniProt P30282 1-292).
T4 construct: 35S-labelled in vitro translation product in the pull-down; baculovirus product in Sf9 cells
T4 sequence (looked up): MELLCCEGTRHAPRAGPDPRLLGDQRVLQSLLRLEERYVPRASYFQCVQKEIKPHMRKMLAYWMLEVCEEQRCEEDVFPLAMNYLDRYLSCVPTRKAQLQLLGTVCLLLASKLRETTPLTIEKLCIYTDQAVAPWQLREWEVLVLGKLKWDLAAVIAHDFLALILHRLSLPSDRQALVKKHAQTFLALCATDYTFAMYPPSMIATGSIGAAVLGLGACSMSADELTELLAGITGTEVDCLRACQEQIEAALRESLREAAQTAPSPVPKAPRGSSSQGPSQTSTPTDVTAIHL
The series is described as above. As for the experimental part: as §1

Series [2] addresses T2, cyclin D1. In words: anti-Flag immunoprecipitation from Sf9 lysates, Western blot for cyclin D1. From the text: The series of DMP1 deletion mutants and the K319E point mutant were then used to determine the cyclin D binding domain of DMP1. Expression vectors encoding murine wild-type DMP1, the corresponding deletion mutations, or K319E (i. e., wildtype DMP1 and M1-M11, defined in FIG. 10, Table 1) were cotransfected with an expression vector encoding cyclin D1 into SF9 cells. Wildtype DMP1 and M1-M11 were expressed containing Flag-tags. SF9 lysates were immunoprecipitated with an antibody raised against the Flag-tag. The immunoprecipitates were resolved individually by gel electrophoresis, and then Western blotted with an antibody raised against cyclin D1. […] Therefore, the cyclin D1 binding domain is missing in the M9 deletion mutant. […] Therefore, deletion of the N-terminal domain of DMP1 (i.e., amino acids 1-223) abrogates its ability to interact with D-type cyclins, and thus, the region of DMP1 from residues 1-223 contains a specific cyclin D interaction motif required for D-type cyclin-DMP1 association.

A further series has as its target T5, Ets1 DNA-binding domain (UniProt P14921 P14921:335-415).
T5 sequence: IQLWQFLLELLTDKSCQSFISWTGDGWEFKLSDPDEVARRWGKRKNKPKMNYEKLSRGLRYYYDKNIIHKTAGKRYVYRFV
In words: EMSA. On the procedure: (§2) Electrophoretic mobility shift assay (EMSA). Recombinant DMP1 protein was prepared in Sf9 cells [Hirai and Sherr, Mol. Cell. Biol. 16:6457-6467 (1996)]. Purified bacterial proteins representing the Ets1 DNA binding domain or full-length Ets1 [Inoue, et al., J. Biol. Chem. 273:29188-29194 (1998)] were used. EMSAs were performed [Inoue and Sherr, Mol. Cell. Biol. 18:1590-1600 (1998)] using either a 281-bp genomic fragment (−225 to +56) or double-stranded oligonucleotides containing the DMP1/Ets site obtained by annealing oligonucleotide 5′-[…]-3′ (sense strand SEQ ID NO:41); DMP1/Ets consensus sequence underlined) with a complementary antisense strand. For competition experiments, a 200-fold excess of unlabelled oligonucleotides was added to reaction mixtures before the probe. To verify the identity of the proteins in shifted complexes, reaction mixtures were incubated with control nonimmune rabbit serum (NRS), serum AF [Hirai and Sherr, Mol. Cell. Biol. 16:6457-6467 (1996)] and M-10 (both to DMP1 carboxylterminal epitopes), S-19 (DMP1 N-terminus), or C-20 (Ets1 C-terminus) before electrophoresis. M-10, S-19, and C-20 were from Santa Cruz Biotechnology.

For a further series, the target named is T6, Ets1 full length (UniProt P14921 P14921:1-441).
T6 sequence: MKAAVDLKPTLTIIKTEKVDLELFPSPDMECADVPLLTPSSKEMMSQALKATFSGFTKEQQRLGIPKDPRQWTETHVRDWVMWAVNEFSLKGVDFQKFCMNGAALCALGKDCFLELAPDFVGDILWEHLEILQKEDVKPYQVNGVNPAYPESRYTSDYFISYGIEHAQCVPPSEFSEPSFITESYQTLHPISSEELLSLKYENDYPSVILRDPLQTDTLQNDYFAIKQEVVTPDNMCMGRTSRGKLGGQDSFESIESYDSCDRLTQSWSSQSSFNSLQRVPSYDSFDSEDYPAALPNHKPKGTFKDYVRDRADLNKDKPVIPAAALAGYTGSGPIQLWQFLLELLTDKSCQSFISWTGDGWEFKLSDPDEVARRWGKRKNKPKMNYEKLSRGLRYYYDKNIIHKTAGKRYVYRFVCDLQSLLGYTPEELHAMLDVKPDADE
In words: EMSA; supershifted by Ets1 antiserum. On the procedure: as §2

T2 sequence (P25322 whole entry): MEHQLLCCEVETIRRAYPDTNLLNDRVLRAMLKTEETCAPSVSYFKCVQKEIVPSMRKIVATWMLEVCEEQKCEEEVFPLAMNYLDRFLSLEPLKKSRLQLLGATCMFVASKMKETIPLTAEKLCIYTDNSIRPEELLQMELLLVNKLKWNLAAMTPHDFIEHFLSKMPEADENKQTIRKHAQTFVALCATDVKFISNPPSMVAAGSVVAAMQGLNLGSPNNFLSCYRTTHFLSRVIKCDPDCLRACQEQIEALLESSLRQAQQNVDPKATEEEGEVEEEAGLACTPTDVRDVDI
T3 sequence (P30280 whole entry): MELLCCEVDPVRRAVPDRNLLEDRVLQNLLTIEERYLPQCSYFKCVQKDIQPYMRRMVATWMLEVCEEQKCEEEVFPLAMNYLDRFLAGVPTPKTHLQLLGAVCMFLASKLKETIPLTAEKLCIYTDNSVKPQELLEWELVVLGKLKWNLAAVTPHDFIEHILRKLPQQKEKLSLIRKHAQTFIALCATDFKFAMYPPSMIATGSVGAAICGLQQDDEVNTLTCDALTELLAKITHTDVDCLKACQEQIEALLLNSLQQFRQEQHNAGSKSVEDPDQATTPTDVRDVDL
T1 sequence (P30280 whole entry, one chain of several): as the sequence (P30280 whole entry) above

B1: catalytically inactive CDK4 mutant (enzyme, mouse, UniProt P30285 1-303, looked up)
chain: MAATRYEPVAEIGVGAYGTVYKARDPHSGHFVALMSVRVPNGGAAGGGLPVSTVREVALLRRLEAFEHPNVVRLMDVCATSRTDRDIKVTLVFEHIDQDLRTYLDKAPPPGLPVETIKDLMRQFLSGLDFLHANCIVHRDLKPENILVTSNGTVKLADFGLARIYSYQMALTPVVVTLWYRAPEVLLQSTYATPVDMWSVGCIFAEMFRRKPLFCGNSEADQLGKIFDLIGLPPEDDWPREVSLPRGAFAPRGPRPVQSVVPEMEESGAQLLLEMLTFNPHKRISAFRALQHSYLHKEESDAE
notes: also called mutant CDK4
For the molecule B1, in the series with cyclin D2-DMP1 complex, the binding result is listed as “no binding”.

B2: GST-DMP1 fusion protein (GST fused to residues 176-761 of DMP1) (other)
chain: GIKDATEIIFEMSKDERKDFYRTIAWGLNRPLFAVYRRVLRMYDDRNHVGKYTPEEIEKLKELRIKHGNDWATIGAALGRSASSVKDRCRLMKDTCNTGKWTEEEEKRLAEVVHELTSTEPGDIVTQGVSWAAVAERVGTRSEKQCRSKWLNYLNWKQSGGTEWTKEDEINLILRIAELDVADENDINWDLLAEGWSSVRSPQWLRSKWWTIKRQIANHKDVSFPVLIKGLKQLHENQKNNPVLLENKSGSGVPNSNCNSSVQHVQIRVARLEDNTAISPSPMAALQIPVQITHVSSTDSPAASADSETITLNSGTLQTFEILPSFPLQPTGTPGTYLLQTSSSQGLPLTLTTNPTLTLAAAAPASPEQIIVHALSPEHLLNTSDNVTVQCHTPRVIIQTVATEDITSSLSQEELTVDSDLHSSDFPEPPDALEADTFPDEIPRPKMTIQPSFNNAHVSKFSDQNSTELMNSVMVRTEEEIADTDLKQEEPPSDLASAYVTEDLESPTIVHQVHQTIDDETILIVPSPHGFIQASDVIDTESVLPLTTLTDPIFQHHQEASNIIGSSLGSPVSEDSKDVEDLVNCH
notes: Made in bacteria, held on glutathione-Sepharose beads; not shown: glutathione S-transferase encoded by pGEX-3X (Pharmacia)
On to B2, for which, in the series with cyclin D1 [1], the binding result is “no binding”. Also, the “fold less binding than GST-RB” value with cyclin D2 and in the series with cyclin D3 was ~4 fold less binding than GST-RB each time.

B3: Flag-tagged DMP1 deletion mutant M9 (amino acids 234-761) (other)
chain: KLKELRIKHGNDWATIGAALGRSASSVKDRCRLMKDTCNTGKWTEEEEKRLAEVVHELTSTEPGDIVTQGVSWAAVAERVGTRSEKQCRSKWLNYLNWKQSGGTEWTKEDEINLILRIAELDVADENDINWDLLAEGWSSVRSPQWLRSKWWTIKRQIANHKDVSFPVLIKGLKQLHENQKNNPVLLENKSGSGVPNSNCNSSVQHVQIRVARLEDNTAISPSPMAALQIPVQITHVSSTDSPAASADSETITLNSGTLQTFEILPSFPLQPTGTPGTYLLQTSSSQGLPLTLTTNPTLTLAAAAPASPEQIIVHALSPEHLLNTSDNVTVQCHTPRVIIQTVATEDITSSLSQEELTVDSDLHSSDFPEPPDALEADTFPDEIPRPKMTIQPSFNNAHVSKFSDQNSTELMNSVMVRTEEEIADTDLKQEEPPSDLASAYVTEDLESPTIVHQVHQTIDDETILIVPSPHGFIQASDVIDTESVLPLTTLTDPIFQHHQEASNIIGSSLGSPVSEDSKDVEDLVNCH
notes: not shown: Flag-tag
As to B3, the binding result with cyclin D1 [2] is “no binding”.

B4: ARF DMP1/Ets site oligo 23 bp (dsDNA)
DNA 1: AATTGGGACCCCGGATGCGGCAG
DNA 2: CTGCCGCATCCGGGGTCCCAATT
As to B4, the binding result in the series with Ets1 DNA-binding domain and in the series with Ets1 full length was “binds” in each case.
